This is an account of results in patent US20250073350A1 (BROAD INSTITUTE, published 2025).

This data set deals with the molecule itself. Kind of data set: self-association; size exclusion and electron microscopy of protein produced in E. coli. (In general: Size exclusion chromatography separates by hydrodynamic size, large species first.)

B1: MmMOAP1, bacterially produced (other, mouse, UniProt Q9ERH6 1-352, looked up)
chain: MTLRLLEDWCRGMDMNPRKALLVAGIPPTCGVADIEEALQAGLAPLGEHRLLGRMFRRDENKNVALIGLTVETGSALVPKEIPAKGGVWRVIFKPPDTDSDFLCRLNEFLKGEGMTMGELTRVLGNRNDPLGLDPGIMIPEIRAPMLAQALNEALKPTLQYLRYKKLSVFSGRDPPGPGEEEFESWMFHTSQVMKTWQVSDVEKRRRLIESLRGPAFEIIRVLKINNPFITVAECLKTLETIFGIIDNPRALQVKYLTTYQKTDEKLSAYVLRLEPLLQKLVQKGAIEKEVVNQARLDQVIAGAVHKSVRRELGLPEGSPAPGLLQLLTLIKDKEAEEEEVLLQAELEGYCT
notes: also called modulator of apoptosis 1
For the protein B1, the binding result is recorded as “binds”.

B2: MmPNMA5, bacterially produced (other, mouse, UniProt Q5DTT8 1-618, looked up)
chain: MAVALLDDWCKGMDLDPKKAVLIVGIPVQYTEAAINDALKEGLPPLCAYKVIGRMFRREDEAKAVLIELPEVVDYTMMPTHIPAEGGAWEVVVKPRSPDDEFMNKLIYFLRDEGRRIVDVAKALGFSTVPTGKIELKNLDQDKPKGLKSLCNNSTCYKKLKVFSGSPFPGPGEESFETWLEEVTELMQLWQVSEREKKQCLLESLRGSALSIMQALWTSNDSLTVEQCLKALKHIFGNKEDSKVLQFRFLQSSQKPAEKVSDYLLRLEPLLQKAVQQSPLSAHSADSIRLKHVLSQVSMTTGLRGKLSLLDQQGCPPTFLELMKLTRDEEEWESTVVVEEQEQVRRDSSACEAANEVVTQAEDSREVSTQTTGEEMTSVKRRRLLWRHSAGEEGQRKESGFWAESEPDEQKPYVRAQESGNERGAWAVSHPNPKEIEAQDSQEFLPVAGNRDTLTKSWGSPDKGTGDMSVAEGQQGQGKAPNFLLARNDPNKQEQIPHSSVTTKWQDRGECQRLKWGASMITRPQGNPDRSWDTSGSQDGEDGCSELRMPTGTEAAQGVEEPATGLSWAEDTSAWEQARLGRETVPRRGGRRIQPVFRIIYTALGEPHEGSTLESFRE
notes: also called paraneoplastic antigen-like protein 5
In the case of B2, the binding result was “binds”.
